Publication PMC9744887, “Structural mechanism of signal transduction in a phytochrome histidine kinase” (Nature Communications, 2022)

Target: the molecule itself
Test: cryo-EM structure; single-particle cryo-EM of DrBphP-DrRR in the Pr state: 780 nm far-red light on the grid; 1-1.5 mg/ml protein with 10 mM CaCl2, 10 mM MgCl2, 4 mM AMP-PNP; Vitrobot at 4 °C; no symmetry imposed

| Protein | stoichiometry N | binding result |
| --- | --- | --- |
| DrBphP-DrRR fusion protein (Deinococcus radiodurans phytochrome fused to its response regulator by a 12 amino acid tether) (other, biliverdin (BV) chromophore; lysate incubated with a molar excess of biliverdin hydrochloride, 938-aa construct in pET21b(+), counting the N-terminal T7-tag and the C-terminal His6-tag; Models were built up to Leu591 (Pr) and for residues 22-521 (Pfr); also called full-length DrBphP-DrRR; source: E. coli BL21 (DE3), purified (NiNTA, size-exclusion chromatography)) MSRDPLPFFPPLYLGGPEITTENCEREPIHIPGSIQPHGALLTADGHSGEVLQMSLNAATFLGQEPTVLRGQTLAALLPEQWPALQAALPPGCPDALQYRATLDWPAAGHLSLTVHRVGELLILEFEPTEAWDSTGPHALRNAMFALESAPNLRALAEVATQTVRELTGFDRVMLYKFAPDATGEVIAEARREGLHAFLGHRFPASDIPAQARALYTRHLLRLTADTRAAAVPLDPVLNPQTNAPTPLGGAVLRATSPMHMQYLRNMGVGSSLSVSVVVGGQLWGLIACHHQTPYVLPPDLRTTLEYLGRLLSLQVQVKEAADVAAFRQSLREHHARVALAAAHSLSPHDTLSDPALDLLGLMRAGGLILRFEGRWQTLGEVPPAPAVDALLAWLETQPGALVQTDALGQLWPAGADLAPSAAGLLAISVGEGWSECLVWLRPELRLEVAWGGATPDQAKDDLGPRHSFDTYLEEKRGYAEPWHPGEIEEAQDLRDTLTGALGERLSVIRDLNRALTQSNAEWRQYGFVISHHMQEPVRLISQFAELLTRQPRAQDGSPDSPQTERITGFLLRETSRLRSLTQDLHTYTALLSAPPPVRRPTPLGRVVDDVLQDLEPRIADTGASIEVAPELPVIAADAGLLRDLLLHLIGNALTFGGPEPRIAVRTERQGAGWSIAVSDQGAGIAPEYQERIFLLFQRLGSLDEALGNGLGLPLCRKIAELHGGTLTVESAPGEGSTFRCWLPDAGPLPGAADAASSAGGSAGSAGMPERASVPLRLLLVEDNAADIFLMEMALEYSSVHTELLVARDGLEALELLEQAKTGGPFPDLILLDLNMPRVDGFELLQALRADPHLAHLPAIVLTTSNDPSDVKRAYALQANSYLTKPSTLEDFLQLIERLTAYWFGTAAIPQTYQPQ | 2 | – |
| Phytochrome from Deinococcus radiodurans (DrBphP), as the phytochrome part of the DrBphP-DrRR fusion (enzyme, biliverdin (BV) chromophore; lysate incubated with a molar excess of biliverdin hydrochloride, see m1; also called full-length DrBphP; source: E. coli BL21 (DE3), purified (NiNTA, size-exclusion chromatography), as part of the fusion m1) MSRDPLPFFPPLYLGGPEITTENCEREPIHIPGSIQPHGALLTADGHSGEVLQMSLNAATFLGQEPTVLRGQTLAALLPEQWPALQAALPPGCPDALQYRATLDWPAAGHLSLTVHRVGELLILEFEPTEAWDSTGPHALRNAMFALESAPNLRALAEVATQTVRELTGFDRVMLYKFAPDATGEVIAEARREGLHAFLGHRFPASDIPAQARALYTRHLLRLTADTRAAAVPLDPVLNPQTNAPTPLGGAVLRATSPMHMQYLRNMGVGSSLSVSVVVGGQLWGLIACHHQTPYVLPPDLRTTLEYLGRLLSLQVQVKEAADVAAFRQSLREHHARVALAAAHSLSPHDTLSDPALDLLGLMRAGGLILRFEGRWQTLGEVPPAPAVDALLAWLETQPGALVQTDALGQLWPAGADLAPSAAGLLAISVGEGWSECLVWLRPELRLEVAWGGATPDQAKDDLGPRHSFDTYLEEKRGYAEPWHPGEIEEAQDLRDTLTGALGERLSVIRDLNRALTQSNAEWRQYGFVISHHMQEPVRLISQFAELLTRQPRAQDGSPDSPQTERITGFLLRETSRLRSLTQDLHTYTALLSAPPPVRRPTPLGRVVDDVLQDLEPRIADTGASIEVAPELPVIAADAGLLRDLLLHLIGNALTFGGPEPRIAVRTERQGAGWSIAVSDQGAGIAPEYQERIFLLFQRLGSLDEALGNGLGLPLCRKIAELHGGTLTVESAPGEGSTFRCWLPDAGPLPGAADA | – | binds |
